US10220090B2, “BCMA Antigen binding proteins” (Amgen Inc., priority 2012, dated 2019)

Experiments:
various cell lines = assay: Cell viability of various cell lines exposed to free DM1; type: cell-based; details: control
Procedure: The ADCs were tested for the ability to target and kill BCMA-expressing myeloma cells. The CellTiter-Glo® Luminescent Cell Viability Assay is a homogeneous method to determine the number of viable cells in culture based on quantitation of the ATP present, which signals the presence of metabolically active cells. The CellTiter-Glo® Assay is applicable to cytotoxicity assays (see http://www.promega.com/products/cell-health-assays/cell-viability-assays/celltiter_glo-luminescent-cell-viability-assay/for more information). The cell viability assay was used to assess the relative killing capacity of various ADCs on various multiple myeloma cell lines and B-cell lines. The protocol provided in the Cell Titer-Glo kit (Promega G7572) was followed. In short, 5×10^3 target cells in 90 ul RPMI 1640, 10% FBS were aliquoted into clear, flat bottom, white walled 96 well plates (Costar #3903). The ADCs were diluted into a 10× stock to create 500 nM maytansine drug equivalents. Each ADC was serially diluted in 2-fold dilutions in RPMI 1640, 10% FBS starting with 500 nM stock. […] Luminescence was read on an EnVision™ Multilabel reader (PerkinElmer) or Analyst HT plate reader (LJL Biosciences). The data was analyzed and graphed using GraphPad Prism™ to determine the relative efficacy of the ADCs on various cancer cell lines. […]

[1] = target: T1, Sumo (cleaved from SumoBCMA) (Saccharomyces cerevisiae, UniProt Q12306); assay: Size exclusion chromatography control with Sumo; type: binding; details: SEC control
T1 construct: 6xHis (N)
Procedure: (§1) A Superdex 200™ 10/30 cm SEC column (GE Healthcare Life Sciences) was used according to the manufacturer's recommended condision and run in phosphate buffered saline (PBS). Incubations of antibody with excess levels of sumoBCMA were performed at room temperature for at least 30 minutes.

[2] = target: [6xHistidine-SUMO]-huBCMA (SEQ ID NO:350) and its carboxy terminal clipped forms (Homo sapiens, UniProt Q02223); assay: Size exclusion chromatography and LC/MS of antibody complexes with Sumo-huBCMA and clipped forms; type: binding; details: SEC and LC/MS; listed as 29C12
Source text: To determine which forms of 6×His-SUMO-huBCMA were bound to the anti-huBCMA antibodies, the SEC fractions were isolated and analyzed. Carboxy-terminus fragments of the extracellular domain of human BCMA were generated as clipped forms from the rhuBCMA fusion protein (6×His::Sumo::huBCMA(aa 5-51)::GGS::G3::Avi) of SEQ ID NO:350, as shown in FIG. 45.
A Superdex 200™ 10/30 cm SEC column (GE Healthcare Life Sciences) was used according to the manufacturer's recommendations and run in phosphate buffered saline (PBS). Incubations of antibody with excess levels of sumoBCMA were performed at room temperature for at least 30 minutes.
as §1
5 ug of total proteins were reduced in 50 mM Tris/4 M guanidine/9 mM DTT, pH 8.0 at 55° C. for 15 min, and analyzed in Agilent LCTOF system using a Vydac C8 column, 2.1 mm ID×150 mm, […] particle size. […] TOF MS conditions included capillary voltage of 4000 V, drying gas flow at 10 L/min, dry gas temperature at 300° C., nebulizer gas flow at 40 L/min, and fragmentor voltage of 300 V. MS data was analyzed in Agilent MassHunter™ Qualitative Analysis program.

human BCMA = target: T2, human BCMA (Homo sapiens, UniProt Q02223, N81S); assay: FACS binding on cells transiently transfected to express full length BCMA
T2 construct: expressed in transfected cells
T2 sequence (Q02223 1-184 N81S): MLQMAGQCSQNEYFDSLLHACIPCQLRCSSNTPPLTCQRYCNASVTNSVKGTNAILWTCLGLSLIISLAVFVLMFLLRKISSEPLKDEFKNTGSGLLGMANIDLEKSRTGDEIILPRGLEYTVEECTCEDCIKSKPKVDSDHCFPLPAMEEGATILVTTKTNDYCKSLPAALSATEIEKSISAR
Procedure: (§2) An important criterion is exquisite selectivity for wild-type human BCMA expressed on the surface of cells. FACS binding on cells transiently transfected to express full length BCMA, TACI, or BAFF-R was performed using standard techniques. Approximately 40×10^6 of the transiently-transfected target cells were resuspended in a staining solution (2% goat serum, 1% rabbit serum, 0.02% azide in PBS) and aliquoted into round-bottom, 96-well plate (Corning Incorp., Acton, Mass.) as per the experiment design. The cells were incubated at 4 degrees celsius for 30 minutes to block non-specific sites. The antibodies were titrated into the staining solution. The cells were rinsed in a rinse solution (PBS+0.02% azide) by resuspending the cells in 200 ul/well. The cells were centrifuged at 1500 rpm at 4 degrees celsius for 7 minutes. The rinse solution was removed and the rinse step was repeated. The cells were resuspended in the appropriate antibody solution (see the matrix in TABLE 4) at 30 ul/well and incubated at 4 degrees celsius for 30 minutes. […] For the mouse IgG1 negative control and the two mouse antibodies (1.183 and 1.288), the secondary reagent was an anti-mouse IgG-PE conjugate (BD Pharmingen Cat. 550589). The cells/antibodies were rinsed as described above to remove excess/unbound antibody. […] Samples were read at 532 nm wavelength on FACS. […]

TACI = target: T3, TACI (Homo sapiens, UniProt O14836); assay: FACS binding on cells transiently transfected to express full length TACI
T3 construct: expressed in transfected cells
T3 sequence (O14836 1-293): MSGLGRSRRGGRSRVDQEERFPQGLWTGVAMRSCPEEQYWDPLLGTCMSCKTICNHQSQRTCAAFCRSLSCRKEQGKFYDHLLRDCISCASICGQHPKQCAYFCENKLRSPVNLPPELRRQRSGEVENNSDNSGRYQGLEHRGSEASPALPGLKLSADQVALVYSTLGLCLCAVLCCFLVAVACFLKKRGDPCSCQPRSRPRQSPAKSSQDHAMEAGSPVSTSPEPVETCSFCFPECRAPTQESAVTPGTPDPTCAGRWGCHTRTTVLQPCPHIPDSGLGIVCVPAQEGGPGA
Procedure: as §2

T1 sequence (Q12306 1-98 limits assumed): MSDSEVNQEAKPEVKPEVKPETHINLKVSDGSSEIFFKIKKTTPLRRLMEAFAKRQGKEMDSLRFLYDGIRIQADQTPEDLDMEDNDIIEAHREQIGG
[6xHistidine-SUMO]-huBCMA (SEQ ID NO:350) and its carboxy terminal clipped forms, sequence (Q02223 with tags, fused parts or gaps limits assumed): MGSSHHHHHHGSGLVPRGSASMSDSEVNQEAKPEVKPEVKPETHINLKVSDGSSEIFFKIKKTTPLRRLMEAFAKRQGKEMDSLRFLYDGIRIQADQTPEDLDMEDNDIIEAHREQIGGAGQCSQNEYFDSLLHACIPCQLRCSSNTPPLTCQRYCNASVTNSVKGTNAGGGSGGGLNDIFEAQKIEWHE

## COc1cc2cc(c1Cl)N(C)C(=O)C[C@H](OC(=O)[C@H](C)N(C)C(=O)CCS)[C@]1(C)O[C@H]1[C@H](C)[C@@H]1C[C@@](O)(NC(=O)O1)[C@H](OC)/C=C/C=C(\C)C2 [DM1]
Various cell lines
  killing by free DM1: killed by free DM1

B1: Ab-8: anti-huBCMA mAb of the second campaign, Vh SEQ ID NO:220, Vl SEQ ID NO:254 (antibody, V domains shown)
VH: EVQLLESGGALVQPGGSLRLSCAASGFTFSSYAMNWVRQAPGKGLEWVSAISVGGDTYYADSVKGRFTISRDNSKNTLYLQMNSLRAEDTAVYYCAKDQVTMVRGVWYYYGLDVWGQGTTVTVSS
VL: DIVMIQSPLSLPVTPGEPASISCRSSQSLLHSNGNNYLDWYLQKPGQSPHLLISLGSNRTSGVPDRFSGSGSGTDFTLKISRVEAEDVGVYYCMQALQPPRRFGQGTKLEIKR
[1]
  binding to Sumo: did not bind to Sumo
[2]
  binding to full-length and truncated fragments of human BCMA: bound full-length and truncated forms of BCMA

B2: Ab-6: anti-huBCMA mAb, Vh SEQ ID NO:216, Vl SEQ ID NO:250 (antibody, V domains shown)
VH: QVQLVESGGGVVQPGRSLRLSCAASGFTFSSYGLHWVRQAPGKGLEWVALISYDGSNKYYADSVKGRFTISRDNSKNTLYLQMNSLRAEDTAVYYCWYSSSWTPLDYWGQGTLVTVSS
VL: DIQMTQSPSSLSASVGDRVTITCRASQGIRNDLGWYQQKPGKAPKRLIYAASSLQSGVPSRFSGSGSGTEFTLTISSLQPEDFATYYCLQYYSYPLTFGGGTKVEIKR
Human BCMA
  BCMA (FACS binding): + (A sample was considered positive for binding if the MFI was two times the negative control value)
TACI
  TACI (FACS binding): + (A sample was considered positive for binding if the MFI was two times the negative control value)
